Data set [1] concerns the target TorS sensor domain (Escherichia coli) (UniProt P39453). The note with it: cited from earlier work.
The data set “cross-linking” concerns the molecule itself. Kind of data set: cross-linking.
The data set “native gel or EMSA” concerns the molecule itself. Kind of data set: native gel or EMSA. Background: Mobility shift assays separate free from complexed probe on a gel.

Positions count from the first letter of the chain named. Names and notes keep the numbering of the source.

Turning to “TorS sensor domain (from UniProt P39453)”, the Kd in data set [1] is 49.6 µM.

B1: N-terminal Strep-tagged CusS(39–187) wild-type, periplasmic sensor domain of the histidine kinase CusS (domain or fragment, E. coli)
chain: VKVHFAEQDINDLKEISATLERVLNHPDETQARRLMTLEDIVSGYSNVLISLADSQGKTVYHSPGAPDIREFTRDAIPDKDAQGGEVYLLSGPTMMMPGHGHGHMEHSNWRMINLPVGPLVDGKPIYTLYIALSIDFHLHYINDLMNKLEGSA
Take B1: the binding result in the data set “cross-linking” was “binds”.

B2: N-terminal Strep-tagged CusS(39–187)-IIA (M133I/M135I/H145A), internal metal binding site eliminated (domain or fragment, E. coli)
chain: B1 chain with M95I, M97I, H107A
Turning to B2, the binding result in the data set “cross-linking” was “binds”.

B3: CusScp-long, cytoplasmic domain of CusS with C-terminal Strep-Myc-Strep-FLAG-HA-Strep tags, wild-type (domain or fragment, E. coli, UniProt P77485 208-480, looked up)
chain: KGHAPIRSVSRQIQNITSKDLDVRLDPQTVPIELEQLVLSFNHMIERIEDVFTRQSNFSADIAHEIRTPITNLITQTEIALSQSRSQKELEDVLYSNLEELTRMAKMVSDMLFLAQADNNQLIPEKKMLNLADEVGKVFDFFEALAEDRGVELRFVGDKCQVAGDPLMLRRALSNLLSNALRYTPTGETIVVRCQTVDHLVQVIVENPGTPIAPEHLPRLFDRFYRVDPSRQRKGEGSGIGLAIVKSIVVAHKGTVAVTSDARGTRFVITLPA
Take B3: the binding result in the data set “native gel or EMSA” is reported as “binds”.

B4: CusScp-short, cytoplasmic domain of CusS (amino acids 208–480) with C-terminal 6xHis tag, wild-type (domain or fragment, E. coli)
chain: MASKGHAPIRSVSRQIQNITSKDLDVRLDPQTVPIELEQLVLSFNHMIERIEDVFTRQSNFSADIAHEIRTPITNLITQTEIALSQSRSQKELEDVLYSNLEELTRMAKMVSDMLFLAQADNNQLIPEKKMLNLADEVGKVFDFFEALAEDRGVELRFVGDKCQVAGDPLMLRRALSNLLSNALRYTPTGETIVVRCQTVDHLVQVIVENPGTPIAPEHLPRLFDRFYRVDPSRQRKGEGSGIGLAIVKSIVVAHKGTVAVTSDARGTRFVITLPALE
As to B4, the binding result in the data set “native gel or EMSA” was “binds”.

One may read the Kd as the free concentration of one partner at which half of the binding sites on the other are occupied at equilibrium, for simple one-to-one binding.

These data come from publication PMC6506263 (The Biochemical journal, 2019).
